IntAct's records for PubMed 30518913

B1: UbiA prenyltransferase domain-containing protein 1 (Homo sapiens), Q9Y5Z9 (parent)
chain: MAASQVLGEKINILSGETVKAGDRDPLGNDCPEQDRLPQRSWRQKCASYVLALRPWSFSASLTPVALGSALAYRSHGVLDPRLLVGCAVAVLAVHGAGNLVNTYYDFSKGIDHKKSDDRTLVDRILEPQDVVRFGVFLYTLGCVCAACLYYLSPLKLEHLALIYFGGLSGSFLYTGGIGFKYVALGDLIILITFGPLAVMFAYAIQVGSLAIFPLVYAIPLALSTEAILHSNNTRDMESDREAGIVTLAILIGPTFSYILYNTLLFLPYLVFSILATHCTISLALPLLTIPMAFSLERQFRSQAFNKLPQRTAKLNLLLGLFYVFGIILAPAGSLPKI

Variants of: B1
Settings: with rash_human HRAS

| Variant | effect of a mutation on the interaction |
| --- | --- |
| MAASQVLGEKINILSGETVKAGDRDPLGNDCPEQDRLPQRSWRQKCASYVLALAAAAFSASLTPVALGSALAYRSHGVLDPRLLVGCAVAVLAVHGAGNLVNTYYDFSKGIDHKKSDDRTLVDRILEPQDVVRFGVFLYTLGCVCAACLYYLSPLKLEHLALIYFGGLSGSFLYTGGIGFKYVALGDLIILITFGPLAVMFAYAIQVGSLAIFPLVYAIPLALSTEAILHSNNTRDMESDREAGIVTLAILIGPTFSYILYNTLLFLPYLVFSILATHCTISLALPLLTIPMAFSLERQFRSQAFNKLPQRTAKLNLLLGLFYVFGIILAPAGSLPKI [R54A;P55A;W56A;S57A] | disrupting interaction |
| MAASQVLGEKINILSGETVKAGDRDPLGNDCPEQDRLPQRSWRQKCASYVLALRPWSFSASLTPVALGSALAYRSHGVLDPRLLVGCAVAVLAVHGAGNLVSTYYDFSKGIDHKKSDDRTLVDRILEPQDVVRFGVFLYTLGCVCAACLYYLSPLKLEHLALIYFGGLSGSFLYTGGIGFKYVALGDLIILITFGPLAVMFAYAIQVGSLAIFPLVYAIPLALSTEAILHSNNTRDMESDREAGIVTLAILIGPTFSYILYNTLLFLPYLVFSILATHCTISLALPLLTIPMAFSLERQFRSQAFNKLPQRTAKLNLLLGLFYVFGIILAPAGSLPKI [N102S] | disrupting interaction |
